The target of assay [1] is T1, orthogonal hCD122 receptor (hoRb), hCD122 with H133D and Y134F (human, UniProt P14784 27-550).
T1 sequence: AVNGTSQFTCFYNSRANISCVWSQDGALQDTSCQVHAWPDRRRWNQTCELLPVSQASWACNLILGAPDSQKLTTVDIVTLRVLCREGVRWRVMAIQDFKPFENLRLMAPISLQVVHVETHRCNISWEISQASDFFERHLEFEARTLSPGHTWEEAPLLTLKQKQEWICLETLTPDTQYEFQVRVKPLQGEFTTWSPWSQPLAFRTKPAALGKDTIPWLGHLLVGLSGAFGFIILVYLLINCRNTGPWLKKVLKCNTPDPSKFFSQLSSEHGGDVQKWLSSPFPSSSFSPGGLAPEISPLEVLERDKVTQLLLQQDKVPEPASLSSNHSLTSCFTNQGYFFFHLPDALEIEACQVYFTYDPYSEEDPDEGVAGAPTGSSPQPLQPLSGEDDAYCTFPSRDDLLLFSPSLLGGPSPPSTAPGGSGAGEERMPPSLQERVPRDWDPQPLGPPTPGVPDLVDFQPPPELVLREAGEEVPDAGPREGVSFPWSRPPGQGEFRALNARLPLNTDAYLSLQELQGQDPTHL
Kind of assay: cell-based or functional assay.

Assay [2] concerns the target T1, orthogonal hCD122 receptor (hoRb), …. The assay can be described thus: cell-based or functional assay. The source holds these as a separate data set.

From patent US20210196796A1 (SYNTHEKINE, published 2021) come the findings set out here.
Wherever Relative Proliferation Fold Change 3F8 1:10 is given: reference of the scale not given here.
Wherever Relative Proliferation Fold Change 3F8 1:2 is given: reference of the scale not given here.
Wherever Relative Proliferation Fold Change 3F8 1:50 is given: reference of the scale not given here.
Wherever Relative Proliferation Fold Change NKL 1:10 is given: reference of the scale not given here.
Wherever Relative Proliferation Fold Change NKL 1:2 is given: reference of the scale not given here.
Wherever Relative Proliferation Fold Change NKL 1:50 is given: reference of the scale not given here.

B1: G27S, SQVLKA (ligand)
chain: APTSSSTKKTQLQLSQLLVLLKAILNSINNYKNPKLTRMLTFKFYMPKKATELKHLQCLEEELKPLEEVLNLAQSKNFHLRPRDLISNINVIVLELKGSETTFMCEYADETATIVEFLNRWITFCQSIISTLT
As for B1, in assay [1], the “3F8 Ortho Proliferation Signal 1:2” value was 40200 cts/min, the “3F8 Ortho Proliferation Signal 1:10” value was 34700 cts/min, the “3F8 Ortho Proliferation Signal 1:50” value came out at 15200 cts/min and the “Relative Proliferation Fold Change 3F8 1:2” value is 94 fold. Moreover, in assay [1], the “Relative Proliferation Fold Change 3F8 1:10” value stood at 33 fold and the “Relative Proliferation Fold Change 3F8 1:50” value stood at 24.6 fold. In assay [2], the “NKL Ortho Proliferation Signal 1:2” value worked out at 48900, the “NKL Ortho Proliferation Signal 1:10” value worked out at 41000, the “NKL Ortho Proliferation Signal 1:50” value amounted to 20700 and the “Relative Proliferation Fold Change NKL 1:2” value worked out at 4.21 fold. For the same molecule, in assay [2], the “Relative Proliferation Fold Change NKL 1:10” value turned out to be 2.94 fold and the “Relative Proliferation Fold Change NKL 1:50” value came to 1.53 fold.

B2: R38G, SQVLKA (ligand)
chain: APTSSSTKKTQLQLSQLLVLLKAILNGINNYKNPKLTGMLTFKFYMPKKATELKHLQCLEEELKPLEEVLNLAQSKNFHLRPRDLISNINVIVLELKGSETTFMCEYADETATIVEFLNRWITFCQSIISTLT
Turning to B2, in assay [1], the “3F8 Ortho Proliferation Signal 1:2” value turned out to be 27200 cts/min, the “3F8 Ortho Proliferation Signal 1:10” value was 32100 cts/min, the “3F8 Ortho Proliferation Signal 1:50” value turned out to be 14200 cts/min and the “Relative Proliferation Fold Change 3F8 1:2” value was determined as 47.5 fold. Moreover, in assay [1], the “Relative Proliferation Fold Change 3F8 1:10” value turned out to be 21.6 fold and the “Relative Proliferation Fold Change 3F8 1:50” value amounted to 8.42 fold. For the same molecule, in assay [2], the “NKL Ortho Proliferation Signal 1:2” value stood at 20100, the “NKL Ortho Proliferation Signal 1:10” value was 18100, the “NKL Ortho Proliferation Signal 1:50” value came out at 9740 and the “Relative Proliferation Fold Change NKL 1:2” value came to 1.78 fold. In assay [2], the “Relative Proliferation Fold Change NKL 1:10” value is 1.19 fold and the “Relative Proliferation Fold Change NKL 1:50” value worked out at 0.67 fold.

B3: R38W, SQVLKA (ligand)
chain: APTSSSTKKTQLQLSQLLVLLKAILNGINNYKNPKLTWMLTFKFYMPKKATELKHLQCLEEELKPLEEVLNLAQSKNFHLRPRDLISNINVIVLELKGSETTFMCEYADETATIVEFLNRWITFCQSIISTLT
For B3, in assay [1], the “3F8 Ortho Proliferation Signal 1:2” value came to 40400 cts/min, the “3F8 Ortho Proliferation Signal 1:10” value was 41100 cts/min, the “3F8 Ortho Proliferation Signal 1:50” value is 24200 cts/min and the “Relative Proliferation Fold Change 3F8 1:2” value was determined as 94.4 fold. Also, in assay [1], the “Relative Proliferation Fold Change 3F8 1:10” value came to 57.3 fold and the “Relative Proliferation Fold Change 3F8 1:50” value worked out at 21.4 fold. Further, in assay [2], the “NKL Ortho Proliferation Signal 1:2” value is 36700, the “NKL Ortho Proliferation Signal 1:10” value stood at 23800, the “NKL Ortho Proliferation Signal 1:50” value turned out to be 11500 and the “Relative Proliferation Fold Change NKL 1:2” value worked out at 2.74 fold. In assay [2], the “Relative Proliferation Fold Change NKL 1:10” value turned out to be 1.51 fold and the “Relative Proliferation Fold Change NKL 1:50” value stood at 0.77 fold.

B4: M39L, SQVLKA (ligand)
chain: APTSSSTKKTQLQLSQLLVLLKAILNGINNYKNPKLTRLLTFKFYMPKKATELKHLQCLEEELKPLEEVLNLAQSKNFHLRPRDLISNINVIVLELKGSETTFMCEYADETATIVEFLNRWITFCQSIISTLT
In the case of B4, in assay [1], the “3F8 Ortho Proliferation Signal 1:2” value stood at 31200 cts/min, the “3F8 Ortho Proliferation Signal 1:10” value was 24600 cts/min, the “3F8 Ortho Proliferation Signal 1:50” value came to 12200 cts/min and the “Relative Proliferation Fold Change 3F8 1:2” value is 179 fold. In assay [1], the “Relative Proliferation Fold Change 3F8 1:10” value was determined as 76.7 fold and the “Relative Proliferation Fold Change 3F8 1:50” value was 37.1 fold. In addition, in assay [2], the “NKL Ortho Proliferation Signal 1:2” value is 57600, the “NKL Ortho Proliferation Signal 1:10” value turned out to be 44100, the “NKL Ortho Proliferation Signal 1:50” value came to 21800 and the “Relative Proliferation Fold Change NKL 1:2” value was found to be 4.47 fold. In addition, in assay [2], the “Relative Proliferation Fold Change NKL 1:10” value was found to be 2.84 fold and the “Relative Proliferation Fold Change NKL 1:50” value turned out to be 1.49 fold.
